This passage reports Cell-surface expression results from paper PMC8379176 (Nature Communications, 2021).

This series deals with ghrelin receptor (WT or mutants). Description: Cell-surface expression assay (FACS). Type of series: cell-based, human. As for the experimental part: Cell-surface expression for each mutant was monitored by a fluorescence-activated cell sorting (FACS) assay. In brief, the expressed cells were incubated with mouse anti-HA-FITC antibody (Sigma) at a dilution of 1:200 for 20 min at 4 °C, and then a 9-fold excess of PBS was added to cells. […] The FACS data were analyzed by BD Accuri C6 software 1.0.264.21. The gating strategy and calculation method of expression are shown in Supplementary Fig. 11.
Supplementary Figure 11 | Gating strategy of cell surface expression assay. Circle a gate P1 in the scatter map (black circle). The cells shown in the histogram map are all the cells in the gate P1 in the scatter map. Fluorescence signal intensity (FITC) is presented by […]. With the Blank sample as the reference value of background fluorescence signal (a), the fluorescence signal histogram map is divided into two regions. The left region represents the negative cell community (FITC-), while the right region represents the positive cell community (FITC+). The expression level of cell surface wild-type (WT) ghrelin receptor (b) can be calculated as follows:
(M(FITC+)-M(FITC-))×(FITC+% Parent). M, mean fluorescence intensity. The expression level of the ghrelin receptor mutant is calculated similarly to WT receptor and then is normalized with the WT to calculate the relative expression value. […]

Positions count from the first letter of the chain named. Numbers in names are those of the source.

B1: WT (protein, UniProt Q92847 1-366, looked up)
Growth hormone secretagogue …: MWNATPSEEPGFNLTLADLDWDASPGNDSLGDELLQLFPAPLLAGVTATCVALFVVGIAGNLLTMLVVSRFRELRTTTNLYLSSMAFSDLLIFLCMPLDLVRLWQYRPWNFGDLLCKLFQFVSESCTYATVLTITALSVERYFAICFPLRAKVVVTKGRVKLVIFVIWAVAFCSAGPIFVLVGVEHENGTDPWDTNECRPTEFAVRSGLLTVMVWVSSIFFFLPVFCLTVLYSLIGRKLWRRRRGDAVVGASLRDQNHKQTVKMLAVVVFAFILCWLPFHVGRYLFSKSFEPGSLEIAQISQYCNLVSFVLFYLSAAINPILYNIMSKKYRVAVFRLLGFEPFSQRKLSTLKDESSRAWTESSINT
Consider B1, for which the Cell-surface expression was 98.69% (replicate 1); 96.95% (replicate 2); 107.34% (replicate 3); 98.90% (replicate 4); 98.13% (replicate 5).

B2: E197ECL2A (protein)
chain: B1 Growth hormone secretagogue … with E197A
modifications: SNAP tag labelled with SNAP-Lumi4-Tb; left off: SNAP, N-terminal, kept
As to B2, the Cell-surface expression is, setting by setting: (replicate 1) 101.89%; (replicate 2) 100.72%; (replicate 3) 102.63%; (replicate 4) 110.56%; (replicate 5) 103.22%.

B3: F38N-termA (protein)
chain: B1 Growth hormone secretagogue … with F38A
modifications: SNAP tag labelled with SNAP-Lumi4-Tb; left off: SNAP, N-terminal, kept
In the case of B3, the Cell-surface expression is, setting by setting: (replicate 1) 92.98%; (replicate 2) 95.22%; (replicate 3) 93.15%; (replicate 4) 94.06%; (replicate 5) 92.77%.

B4: F2796.51A (protein)
chain: B1 Growth hormone secretagogue … with F279A
modifications: SNAP tag labelled with SNAP-Lumi4-Tb; left off: SNAP, N-terminal, kept
On to B4, for which the Cell-surface expression by setting is: (replicate 1) 103.70%; (replicate 2) 100.07%; (replicate 3) 101.03%; (replicate 4) 106.36%; (replicate 5) 95.20%.

B5: L37N-termA (protein)
chain: B1 Growth hormone secretagogue … with L37A
modifications: SNAP tag labelled with SNAP-Lumi4-Tb; left off: SNAP, N-terminal, kept
Take B5: the Cell-surface expression was found to be 100.75% (replicate 1); 98.96% (replicate 2); 98.94% (replicate 3); 96.06% (replicate 4); 97.45% (replicate 5).

B6: I1784.60A (protein)
chain: B1 Growth hormone secretagogue … with I178A
modifications: SNAP tag labelled with SNAP-Lumi4-Tb; left off: SNAP, N-terminal, kept
As for B6, the Cell-surface expression is recorded as 94.94% (replicate 1); 100.59% (replicate 2); 91.58% (replicate 3); 96.01% (replicate 4); 89.87% (replicate 5).

B7: F2866.58A (protein)
chain: B1 Growth hormone secretagogue … with F286A
modifications: SNAP tag labelled with SNAP-Lumi4-Tb; left off: SNAP, N-terminal, kept
On to B7, for which the Cell-surface expression runs as follows: (replicate 1) 90.14%; (replicate 2) 93.12%; (replicate 3) 89.15%; (replicate 4) 93.89%; (replicate 5) 90.00%.

B8: L1814.63A (protein)
chain: B1 Growth hormone secretagogue … with L181A
modifications: SNAP tag labelled with SNAP-Lumi4-Tb; left off: SNAP, N-terminal, kept
Regarding B8, the Cell-surface expression reads like this: (replicate 1) 94.17%; (replicate 2) 98.71%; (replicate 3) 96.25%; (replicate 4) 95.38%; (replicate 5) 113.13%.

B9: R2836.55A (protein)
chain: B1 Growth hormone secretagogue … with R283A
modifications: SNAP tag labelled with SNAP-Lumi4-Tb; left off: SNAP, N-terminal, kept
As for B9, the Cell-surface expression came to 56.22% (replicate 1); 65.89% (replicate 2); 64.91% (replicate 3); 66.07% (replicate 4); 63.09% (replicate 5).

B10: R1022.63A (protein)
chain: B1 Growth hormone secretagogue … with R102A
modifications: SNAP tag labelled with SNAP-Lumi4-Tb; left off: SNAP, N-terminal, kept
B10: the Cell-surface expression is, setting by setting: (replicate 1) 101.47%; (replicate 2) 87.96%; (replicate 3) 94.26%; (replicate 4) 99.21%; (replicate 5) 100.61%.

B11: E1243.33A (protein)
chain: B1 Growth hormone secretagogue … with E124A
modifications: SNAP tag labelled with SNAP-Lumi4-Tb; left off: SNAP, N-terminal, kept
In the case of B11, the Cell-surface expression by setting is: (replicate 1) 93.73%; (replicate 2) 94.80%; (replicate 3) 89.39%; (replicate 4) 97.54%; (replicate 5) 93.21%.

B12: D992.60A (protein)
chain: B1 Growth hormone secretagogue … with D99A
modifications: SNAP tag labelled with SNAP-Lumi4-Tb; left off: SNAP, N-terminal, kept
Regarding B12, the Cell-surface expression by setting is: (replicate 1) 101.25%; (replicate 2) 96.41%; (replicate 3) 90.24%; (replicate 4) 92.75%; (replicate 5) 94.78%.

B13: L1032.64A (protein)
chain: B1 Growth hormone secretagogue … with L103A
modifications: SNAP tag labelled with SNAP-Lumi4-Tb; left off: SNAP, N-terminal, kept
Regarding B13, the Cell-surface expression by setting is: (replicate 1) 102.32%; (replicate 2) 103.70%; (replicate 3) 96.41%; (replicate 4) 91.52%; (replicate 5) 101.60%.
